Experimental data as given in the Immune Epitope Database (IEDB).

Assays:
HLA-A*02:01 [1] = assay: IEDB peptide-MHC binding, purified MHC/competitive/fluorescence; filed as Kd, often an IC50 or EC50 that approximates it; ≥ and ≤ were set here for values at or beyond the usual limits of such assays; conditions: source organism: West Nile virus
HLA-A*02:01 [2] = assay: IEDB peptide-MHC binding, purified MHC/competitive/fluorescence; ≥ and ≤ were set here for values at or beyond the usual limits of such assays
HLA-A*03:01 = assay: IEDB peptide-MHC binding, purified MHC/direct/fluorescence; filed as Kd, often an IC50 or EC50 that approximates it; ≥ and ≤ were set here for values at or beyond the usual limits of such assays
HLA-A*01:01 = assay: as above; conditions: source organism: Homo sapiens
HLA-B*15:01 = assay: as above
HLA-B*58:01 = assay: as above
HLA-A*69:01 = assay: as above
HLA-A*11:01 [3] = assay: as above; conditions: source organism: Homo sapiens
HLA-A*26:01 = assay: IEDB peptide-MHC binding, purified MHC/competitive/radioactivity; filed as Kd, often an IC50 or EC50 that approximates it; ≥ and ≤ were set here for values at or beyond the usual limits of such assays
HLA-A*33:01 = assay: as above; conditions: source organism: Dengue virus 1 Brazil/97-11/1997
HLA-A*31:01 [4] = assay: as above; conditions: source organism: Dengue virus 1 Brazil/97-11/1997
HLA-A*68:01 = assay: as above; conditions: source organism: Dengue virus 1 Brazil/97-11/1997
HLA-A*11:01 [5] = assay: as above; conditions: source organism: Dengue virus 1 Brazil/97-11/1997
HLA-A*02:02 = assay: as above
HLA-A*02:06 = assay: as above
HLA-A*02:03 = assay: as above
HLA-A*23:01 = assay: as above; conditions: source organism: Dengue virus 3 Martinique/1243/1999
HLA-A*24:02 = assay: as above
HLA-A*31:01 [6] = assay: IEDB peptide-MHC binding, purified MHC/direct/fluorescence; filed as Kd, often an IC50 or EC50 that approximates it; ≥ and ≤ were set here for values at or beyond the usual limits of such assays; conditions: source organism: Vibrio cholerae
HLA-A*30:02 = assay: IEDB peptide-MHC binding, purified MHC/competitive/radioactivity; filed as Kd, often an IC50 or EC50 that approximates it; ≥ and ≤ were set here for values at or beyond the usual limits of such assays; conditions: source organism: Dengue virus 4 Thailand/0348/1991
HLA-A*02:01 [7] = assay: IEDB peptide-MHC binding, purified MHC/direct/fluorescence; filed as Kd, often an IC50 or EC50 that approximates it; ≥ and ≤ were set here for values at or beyond the usual limits of such assays; conditions: source organism: Yersinia pestis
[8] = source organism: Dengue virus 1 Brazil/97-11/1997
[9] = source organism: Lassa virus Josiah
[10] = source organism: SARS coronavirus Tor2
[11] = source organism: Vaccinia virus WR
[12] = source organism: Sudan ebolavirus
[13] = source organism: Yersinia pestis

With SLFGQRIEV as the sequence, how does the Kd (HLA-A*02:01 [1]) read?
The Kd was 0.9 nM.

What about the IC50 (HLA-A*02:01 [2]; source organism: West Nile virus NY-99) of the same sequence?
Its IC50 is 204 nM.

Which results are given for SSEQTFMYY?
Kd (HLA-A*03:01; source organism: Homo sapiens): 10200 nM; Kd (HLA-A*01:01): 42.1 nM; Kd (HLA-B*15:01; source organism: Homo sapiens): 1420 nM; Kd (HLA-B*58:01; source organism: Homo sapiens): 2480 nM; Kd (HLA-A*69:01; source organism: Homo sapiens): 8340 nM; Kd (HLA-A*11:01 [3]): 263 nM

How did the Kd (HLA-A*26:01; source organism: Dengue virus 2 Jamaica/1409/1983) turn out when DVFCDSKLM was run?
Its Kd is 1880 nM.

Which results are given for TVMDVISRR?
Kd (HLA-A*33:01): 7.07 nM; Kd (HLA-A*31:01 [4]): ≥ 39300 nM; Kd (HLA-A*26:01; [8]): 2340 nM; Kd (HLA-A*68:01): 7.98 nM; Kd (HLA-A*11:01 [5]): 30.2 nM

Which Kd (HLA-A*02:02; [9]) does the source give for SLYKGVYEL here?
The Kd was 56.8 nM.

And the Kd (HLA-A*02:06; [9])?
The Kd was 394 nM.

What about the Kd (HLA-A*02:03; [9]) of the same sequence?
The Kd was 5.81 nM.

Which Kd (HLA-A*02:02; [10]) does the source give for FMRFFTLGSI here?
The Kd was 24.2 nM.

And the Kd (HLA-A*02:06; [10])?
Its Kd is 195 nM.

And the Kd (HLA-A*02:03; [10])?
The Kd was 0.76 nM.

For CLKNEGVSGL, which Kd (HLA-A*02:02; [11]) is on record?
Its Kd is 127 nM.

What about the Kd (HLA-A*02:06; [11]) of the same sequence?
Its Kd is 14100 nM.

And the Kd (HLA-A*02:03; [11])?
Its Kd is 25.1 nM.

How did the Kd (HLA-A*02:02; [11]) turn out when GIYNCCESNI was run?
Its Kd is 68.3 nM.

What about the Kd (HLA-A*02:06; [11]) of the same sequence?
Its Kd is 290 nM.

What about the Kd (HLA-A*02:03; [11]) of the same sequence?
Its Kd is 140 nM.

Which Kd (HLA-A*26:01; [8]) does the source give for EVTAKWLWGF here?
The Kd was 80.7 nM.

With FVRLDRPHT as the sequence, how does the IC50 (HLA-A*02:01 [2]; [12]) read?
Its IC50 is ≥ 101000 nM.

What does the source list for TTPLISFFGL?
Kd (HLA-A*02:02; [11]): ≥ 5000 nM; Kd (HLA-A*02:06; [11]): 3360 nM; Kd (HLA-A*02:03; [11]): 17600 nM

How did the IC50 (HLA-A*02:01 [2]; [11]) turn out when RLGADLDAV was run?
Its IC50 is 7720 nM.

Which results are given for LATLNTLIT?
Kd (HLA-A*02:02; [11]): 1160 nM; Kd (HLA-A*02:06; [11]): 14200 nM; Kd (HLA-A*02:03; [11]): 1550 nM

For RVNHAKYMVT, which Kd (HLA-A*02:02; [11]) is on record?
Its Kd is ≥ 33600 nM.

What about the Kd (HLA-A*02:06; [11]) of the same sequence?
Its Kd is 9330 nM.

And the Kd (HLA-A*02:03; [11])?
The Kd was 1050 nM.

With RQQLEDIFM as the sequence, how does the Kd (HLA-A*02:02; [11]) read?
The Kd was 5730 nM.

What about the Kd (HLA-A*02:06; [11]) of the same sequence?
Its Kd is 944 nM.

And the Kd (HLA-A*02:03; [11])?
Its Kd is ≥ 26900 nM.

How did the Kd (HLA-A*02:02; [10]) turn out when KLFTIAMWLL was run?
The Kd was 8.53 nM.

And the Kd (HLA-A*02:06; [10])?
Its Kd is 262 nM.

What about the Kd (HLA-A*02:03; [10]) of the same sequence?
The Kd was 709 nM.

With DFAGKTVWF as the sequence, how does the Kd (HLA-A*23:01) read?
The Kd was 6480 nM.

What about the Kd (HLA-A*24:02; source organism: Dengue virus 3 Martinique/1243/1999) of the same sequence?
Its Kd is 3030 nM.

For EVMPEKRNVV, which Kd (HLA-A*02:02; [11]) is on record?
The Kd was ≥ 20200 nM.

What about the Kd (HLA-A*02:06; [11]) of the same sequence?
The Kd was 12100 nM.

What about the Kd (HLA-A*02:03; [11]) of the same sequence?
The Kd was 2620 nM.

With TYLHGIFDR as the sequence, how does the Kd (HLA-A*03:01; source organism: Vibrio cholerae) read?
Its Kd is ≥ 20000 nM.

And the Kd (HLA-A*31:01 [6])?
The Kd was 17.1 nM.

With KAFSMPLGV as the sequence, how does the IC50 (HLA-A*02:01 [2]; [12]) read?
Its IC50 is 9080 nM.

For SRNSTHEMY, which Kd (HLA-A*30:02) is on record?
Its Kd is 1810 nM.

KLSDGVAVL was tested. Which IC50 (HLA-A*02:01 [2]; source organism: Homo sapiens) did it give?
Its IC50 is 6500 nM.

What does the source list for TAIRAGYSI?
Kd (HLA-A*02:02; [11]): 14500 nM; Kd (HLA-A*02:06; [11]): 7690 nM; Kd (HLA-A*02:03; [11]): 9200 nM

With PTILATLNTL as the sequence, how does the Kd (HLA-A*02:02; [11]) read?
Its Kd is 374 nM.

And the Kd (HLA-A*02:06; [11])?
The Kd was 771 nM.

And the Kd (HLA-A*02:03; [11])?
The Kd was 130 nM.

What does the source list for QQLCTMERT?
Kd (HLA-A*02:02; [11]): ≥ 77800 nM; Kd (HLA-A*02:06; [11]): 929 nM; Kd (HLA-A*02:03; [11]): 4520 nM

With VATDVPSAT as the sequence, how does the IC50 (HLA-A*02:01 [2]; source organism: Zaire ebolavirus) read?
The IC50 was ≥ 157000 nM.

SVDEEGCGPL was tested. Which Kd (HLA-A*02:02; [11]) did it give?
Its Kd is 14800 nM.

And the Kd (HLA-A*02:06; [11])?
Its Kd is 12700 nM.

And the Kd (HLA-A*02:03; [11])?
The Kd was ≥ 38700 nM.

Which results are given for SIINHKFCNL?
Kd (HLA-A*02:02; [9]): 247 nM; Kd (HLA-A*02:06; [9]): 1010 nM; Kd (HLA-A*02:03; [9]): 562 nM

For LLLGGTSEI, which Kd (HLA-A*69:01; source organism: Mycobacterium tuberculosis) is on record?
Its Kd is 846 nM.

How did the Kd (HLA-B*15:01; [13]) turn out when LLAALFHDI was run?
The Kd was 2480 nM.

And the Kd (HLA-B*58:01; [13])?
The Kd was 1940 nM.

What about the Kd (HLA-A*02:01 [7]) of the same sequence?
The Kd was 85 nM.

What about the Kd (HLA-A*69:01; [13]) of the same sequence?
The Kd was 1940 nM.

LFSGVSWIM was tested. Which Kd (HLA-A*24:02; source organism: Dengue virus 3 Singapore/8120/1995) did it give?
Its Kd is 141 nM.
